The record followed here is a protein production outcome set (Wang et al. 2014).

The nature of this series: label from the status in PepcDB records.
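Further: failed if final PepcDB status was selected cloned or expressed and not failed if soluble or beyond.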

For “MNTPSRTHLVIIPSYNPGPKVYETVQAARRYWNPVWVVVDGSTDGTWEGLLKLSAEDSGLVVLGMPANRGKGAAVLRGLLTSRRKGFTHALVMDSDGQHPADRIPEFMARSQEEPDAMILGVPVFDDSAPSLRVKGRRISNWWANLETLWCGIGDSLFGFGVYPIQALCVIMQDHQWMRRFDFDPEAAVRLCWAGIRPVNLPVPVYYPKPEEGGTSHFHYWRDNALLTWMHVRLMFGFLARLPILLARIVRRPEILEHHHHHH”, the protein production result is “failed”.

With “MNTSDRIKSTQIALDRDLREQALLLLKEVRAVDGVDALSEQFVRGLAEPGLGHSHLIVTLNDKLVGLAATDEETTELAVHPAHRRQGIGKALIDAT”, the protein production result is given as “failed”.

Turning to “MNTSHSSPSNTLLWQSLGLGLLALLLFCAGADHQSAIGFDSRFVLFAKEMLRHGPGFFPTTYGQPYADYSSASTLLVWLFSLPGGQVTSLTAWLPTAIASALIVSLIYRLLAPYSRTWALLSVALLLLSNTFISETRAVSLDQMLAAVSLAVFYLGYAHDHFGTRRRLGWIFLLLVLGFAIRGPIGLVIPTGMLCSYYLLNGQWRRLFSVGFSALALLVACVGLLLWLAKLSGGQAFVDDVIRMQFMGRMDGSEGSSDVFYYFTSSLGNYALAYPLAILAWLAVLLTRATEQGPGLKLLRLCTAAGLIVMIGLSIPQAKKARYLLPMLPMAAIIAAYPFQAGRGRLLAWLRGAIQGLWLLLPGLLIIGLLVLRRKFPEQLDSLTPMLLVLGLLQLLSLGLLFKRQWRAVGLAYSAVLAVWACYIGVFEPVEHRLYDTRTFSHSAMQLIEADPAPVVLHRMGKDAKAIKFMVNLDRDLQPQFTESPDALAQVPGPAWVILDQSDLASLQNTPLADLKPVLSGRFDKNDFVLLHLTGPTAAQP”, the protein production entry is “failed”.

In the case of “MNTVFFYLQVSIKNLHDSIKNLRVSIKNLYVSIKGAGITAFLQTVKYERFEEKILMDFISNLFGRDKNQSFLEASKQGQTENVEKLLRSNKVDVNYQDAYGKTALISAADKGYRDVIGLLIESGPNLDLQDENGNTALISAAKIERGDIIDLLVKNGADLNFQDENGETALKFAVKVGYKNIADQLIDAGTDLNIQDENGETALICAADRAHRDIAELLIKAGADLNIQDNSGKTALVAATKIGHKGIVELLVNAGADLNLQDKNGNTALIYAADRGYRDIVNLLIEGGASLNIPDEAGLTALMFSAQTGRKDIVELLIKAGADINIEDKNNKTAADLAAEVGFEEIVDLLTSVRTYSSS”, the protein production entry is “failed”.

On to “MNVAEEMLSGEETLAVGERFKTFLENFRTEEGKLKYVEAIRRMINYEETSLEVEFKDLYRYDPLLSEILLEKPREFLKEASEALKEIVAQESPEYAQGRVFTPRFTGLFDTERIRDIGSDHVGKLVQINGIVTRMHPRATRMVRARFRHDRCGAEFWWPANEDEVLGERIERPSICPVCGEGGGKFTLVRDKSLYIDWQKIMVQERPEDVPGGQIPRSIEVHLSRDLVEKVRPGDRVKIVGVVGLQSFSSSSTLYSLYMEANSILLEEKILEEVSITREDEEKILQLSRDPWIKEKIIASIAPTIYGHWDLKEAIALLLFGGVPKQRPDGTRTRGDIHVLFVGDPGVAKSQLLQSTAQVAPRVVYTTGKGSTAAGLTAAVLRDPRTGEYFLEAGALVLADGGIAVIDEFDKMSKEDRGVIHEAMEQQTVSIAKAGIKATLSARASLLAAGNPKFGYYDPSRSFVDNVDLPAPIISRFDLIFVVRDVIERSRDEMLASYVLETHTNVELFKPEIDPDLLRKYIAFARKHVKPRLTPQAKKLLKDFYVEMRSSALHHSSQEGAKPVPITTRQLEALIRLTEAHARMSLKQEATEEDAIAAIRIMTSVLQSIGLDLETGEIDIGIIMTGASFRSRKIMSEVLDLIKSIVEEERGGQGCVRASEIVRRLGEKNIPEEKVRDAIDKLYRQGLIIEIRTECYKAV”, for which the protein production result is “failed”.

Take “MNVDARVGVAVDGAQSALNTATTVHSSVVMTQIKPQAKLGTFQNLLAGGIAGAISKTCTAPLARLTILFQLQGMQSEGAVLSRPNLRREASRIINEEGYRAFWKGNLVTVVHRIPYTAVNFYAYEKYNLFFNSNPVVQSFIGNTSGNPIVHFVSGGLAGITAATATYPLDLVRTRLAAQRNAIYYQGIEHTFRTICREEGILGLYKGLGATLLGVGPSLAINFAAYESMKLFWHSHRPNDSDLVVSLVSGGLAGAVSSTDDKLFDAHNYVATYPLDLVRRRMQVEGAGGRARVYNTGLFGTFKHIFKSEGFKGIYRGILPEYYKVVPGVGIVFMTYDALRRLLTSLPD”: the protein production entry is reported as “failed”.

For “MNVELFKKFSEKVEEIIEAGRILHSRGWVPATSGNISAKVSEEYIAITASGKHKGKLTPEDILLIDYEGRPVGGGKPSAETLLHTTVYKLFPEVNAVVHTHSPNATVISIVEKKDFVELEDYELLKAFPDIHTHEVKIKIPIFPNEQNIPLLAKEVENYFKTSEDKYGFLIRGHGLYTWGRSMEEALIHTEALEFIFECELKLLSFHS”, the protein production result is listed as “not failed”.

For the sequence “MNVFQMLRLPDLVSLLNLICGIGSIAVAAQSDSFGFALILLLLAAVADGADGYIARRFKGGELGEQLDSLADAVSFGVAPALLIFLEFGVEEPIVGIFAGLYAVCGVLRLARFNSSISVPKAGFEGLPITAGCIMLVTYLLLGESFVIVDVLLALTLALSILMVSTVNYPKIRNIKILAFVAAVFGITMLLYFIDVQYMRVFSFLPFILMLSYLFSPFLKIPVISIATSKDYGNRKGAKAEGRKEKQ”, the protein production entry is on record as “failed”.

As to “MNVKRIKKRMFITFSIIAVLAIALYIFLQTAPFGNPPADARLERIRKSANYKDGVFKNLSNTPVMAEDASYMDMIKQQFSKDSTREPAVCIPSVKRDLSLVPSDRPVITWFGHSTYLIQTEGKNILIDPVFCTSTSPVQFVGNKKYKGTEVYTPADFPAINYLILTHDHYDHLDYQTTLDMQSKVFSYYMPLGVGSHLESWGIDTAKLHELDWWQEIDLEPGYKLVCLPARHFSGRSITDRGKTLWASYLLITPTHKIYIGGDSGYDTHFKQIADKYGAVDIAFLESGQYNAYWPYIHMMPEQTVQAAKDLQAKVLLPVHWGKYTLALHPWDEPIKRLTLEAHKQQVNVATPMIGEPVILDSILPHSTWWVPEGKK”, the protein production entry is on record as “failed”.

On to “MNVVRYTPWPGQAALQNEIKQVFDRFFEHNGDTDESAVVTAQWVPRVDIKEEPNQFVLYADLPGIDPADIEVQMDKGILSIKGERKTESSSQTEHFSRIERRYGSFHRRFALPDSADADGITASGSHGVLRILIPKQAATTPRRIQVGNAVSSDVALQSMLEHHHHHH”, for which the protein production entry was “not failed”.

“MNVYFLGGGNMAAAVAGGLVKQGGYRIYIANRGAEKRERLEKELGVETSATLPELHSDDVLILAVKPQDMEAACKNIRTNGALVLSVAAGLSVGTLSRYLGGTRRIVRVMPNTPGKIGLGVSGMYAEAEVSETDRRIADRIMKSVGLTVWLDDEEKMHGITGISGSGPAYVFYLLDALQNAAIRQGFDMAEARALSLATFKGAVALAEQTGEDFEKLQKNVTSKGGTTHEAVEAFRRHRVAEAISEGVCACVRRSQEMERQYQ”: the protein production result is given as “not failed”.

As for “MNWQLKSKEAEVMNKLSLFLGCIVPNRYPGIEKATKLCLQRLEIDACDLPGASCCPAPGVFKSFDKATWLALASRNIVLSERMERDVLTVCNGCYGSLADANMELKKDPEMKACTNSCLKEIGMEFRGTSEIRHIIEFLYKEFGPEKLKEYITTPLDLKVALHYGCHLIKPSKDRNLGDTESPVFFDELVEATGAKSVDYTDKMMCCGAGGGVRSGYADESLEMLEHKLDCICKAGVDCIVNACPFCHLQFDRGQIAVNEKFGTDYSIPVLHYSQLLGLALGFSPDQLGIEQNAVQNIEFLAKIYEISAGLS”, the protein production result is given as “failed”.

As for “MNYASNTFELIAKEWLQMKDWAEITKTRRLDMLERVVFPAIGKLPVREITPHHILKILQETAKRGAPTVAAEARRTISSVFELAVATLRADSDPVWPVRKALPANKTQHLEHHHHHH”, the protein production result is “not failed”.

As for “MNYILHLSILLVVAKLLEWLFEKKDIHPIIAHILTGIILGPFLLGIIYPNEELKVLSEFGLIMMMLYMGLTSNFSAIAQNKVKAIVVASLGVAFSFILGFTTVYLFGKGISAALFVGITLGNTAIEVTSGVIMKERIKREISSVLMGAAFADDIIAVYLIGILTGMIKGQTSLLSLAILTIKIVAFILSVLIFSEFVFKKSSLIYNLVIKDLNVFFTFTIILTFSLAVIAEGIGLNRIIGAYLAGLTISRLRERKDPLIISRIKLNELINELQVVLTEFFIPLFFIYVGLMFDPDTSEINLLLIALLYASAILGKLIGCGLGVKVFKGSWKDAVIVGIGMGGRGSLDLALLKFGLESGMIGEDLFATTVIVSMLTALSTPIFFRKTVKKLSEE”, the protein production entry is recorded as “failed”.

As for “MNYPLTLEMDLENLEDLFWELDRLDNYNDTSLVENHLCPATEGPLMASFKAVFVPVAYSLIFLLGVIGNVLVLVILERHRQTRSSTETFLFHLAVADLLLVFILPFAVAEGSVGWVLGTFLCKTVIALHKVNFYCSSLLLACIAVDRYLAIVHAVHAYRHRRLLSIHITCGTIWLVGFLLALPEILFAKVSQGHHNNSLPRCTFSQENQAETHAWFTSRFLYHVAGFLLPMLVMGWCYVGVVHRLRQAQRRPQRQKAVRVAILVTSIFFLCWSPYHIVIFLDTLARLKAVDNTCKLNGSLPVAITMCEFLGLAHCCLNPMLYTFAGVKFRSDLSRLLTKLGCTGPASLCQLFPSWRRSSLSESENATSLTTF”, the protein production result is listed as “failed”.

On to “MNYRLIPALFLIVMGALFLLDNLGLAHMDVGNLIATWWPVFLIAAGVRQLLRYRQRAAATC”, for which the protein production result is recorded as “failed”.

With “MNYSHPISLKTLVQEDDIGVNAPIIHQSVIARLTAGLYPLYQSKKIPFEPLPETMLTEGYSSPVPDVLLYDHQTEEAKVIIEVCQNSGLKHDTSKIVKLIEDNAYGILEGFVFNYKTQQWLRYRLGDGGVATNSSFSEVLQVDLNTFV”, the protein production result is “not failed”.

Regarding “MNYVVLGASAAGINAVKTLRELDKDSNIVVISKDENVYSRCMLHHVISEHRTLKQINFVDEDFMEQNNVKWIAGKTVKGIDINKKVVQTEDITVNYDKLLIATGASSAIPPIKNLRDGNFVYSVRNIDDIYKIKEKAQNSKNVVIIGAGLVGIDALVGLFKYEQLNISVAFMEKYILDRQLDEYTASVYENKFKEKGVKFYPSASIQEIVLDNSKNVTGVAFSNGEVLDADMVIVATGVKPNADFLDGTGIEYDRGIIIDDMCQTTQKDIYAAGDVVGKNAIWPLAVKQGIVAAYNMVGKDKKIEDEFAFKNSMNFMDIPTISIGMNTPVDDSYKVLTRHGINDYKKFVFKDNVIYGAVIQGDISYVGVLTYLIKNKVEIYDLENRIFDICYADFFNIKENGEFCYSV”, the protein production result is recorded as “failed”.

With “MPAAHPSAISFARQTKAIAMAAKIVPAPDYEDRVRASFARQQAMATIGAELTLVTPGIIEIEMPYSAALTQQHGFLHAGVISTALDSACGYAAFSLMPENSGVLTIEFKVNLLAPGRGERFLFRGSVTKPGRTIIVADGQAYAFAADGEAKLIATMTGTMMTVVGRDGIAG”, the protein production entry is recorded as “failed”.

“MPAFVTFGRILFAVLFIYTGATKLFAIQATADFIATKVVVPDIIAPYAKQIETATAMTTPQLLAIAVGALEIIAGLMIALNFGARFFAMLLIVYVAVATVLFYDFWNLAAPDNAKMLVDALKNLSIIGALCMIIGYGRATRPVEAAYGDV”: the protein production result is recorded as “failed”.

Take “MPAGAVRRRLGRRAGGWENGGMSDSSPARPAAPVLDVWCELQCPDCHTALDDVRALRARYGDRLEVRLRHFPLEKHKYAFAAAQAAEEAVAQGRGWPYAEAVLDRVAELDRKGEPFLVEVARELGLDAEEFDTALIDGRHILIVDADQAEGKAIGVTGTPTYVIGGERLDGGKSQDGLRERIEEIADRLLAQPRD”: the protein production entry is on record as “failed”.
